US20180177842A1 (CANIMGUIDE THERAPEUTICS, published 2018)
Ends that are not written are not given here.

T1: His-tagged P3028 (human, also: His tag, length and end not given here)
T1 construct: in solution at 0.5 ug/mL, detected with mouse anti-His antibody and rabbit anti-mouse peroxidase (rampo); also called PGE73; His-tag-P3028; not shown: His tag
T1 peptide: VFDEFKPLVEEPQNLIK


The binders below were run against Artificial Cell Surface (ACS): biotinylated cell surface proteins of human PBMCs bound to a streptavidin column (human) (assay: adsorption on ACS column, MALDI-TOF ms).

Binder	Percent Absorbed
DHVKLVNEVTEFAKTCVA [Asp-N-generated albumin fragment, SEQ ID NO 217]	100%
DKLCTVATLRETYGEM [Asp-N-generated albumin fragment, SEQ ID NO 222]	65%
DSISSKLKECCEKPLLEKSHCIAEVEN [Asp-N-generated albumin fragment, SEQ ID NO 221]	65%
DDKETCFAEEGKKLVAASQAALGL [Asp-N-generated albumin fragment, SEQ ID NO 218]	100%
VFDEFKPLVEEPQNLIK [Trypsin-generated albumin fragment, SEQ ID NO 196]	60%
DRVTKCCTESLVNRRPCFSALEV [Asp-N-generated albumin fragment, SEQ ID NO 219]	87%
DETYVPKEFNAETFTHA [Asp-N-generated albumin fragment, SEQ ID NO 220]	86%
KYLYEIAR [Trypsin-generated albumin fragment, SEQ ID NO 194]	71%
KVPQVSTPTLVEVSR [Trypsin-generated albumin fragment, SEQ ID NO 195]	64%

The next lines start with the values.

Percent Absorbed	Binder
8%	FKDLGEENFK [Trypsin-generated albumin fragment, SEQ ID NO 213]
36%	LKECCEKPLLEK [Trypsin-generated albumin fragment, SEQ ID NO 201]
34%	YLYEIAR [Trypsin-generated albumin fragment, SEQ ID NO 203]
32%	CCAAADPHECYAK [Trypsin-generated albumin fragment, SEQ ID NO 204]
41%	FQNALLVR [Trypsin-generated albumin fragment, SEQ ID NO 199]
22%	NECFLQHK [Trypsin-generated albumin fragment, SEQ ID NO 209]
59%	VPQVSTPTLVEVSR [Trypsin-generated albumin fragment, SEQ ID NO 197]
25%	QEPERNECFLQHK (not fully specified) [Trypsin-generated albumin fragment, SEQ ID NO 207]
3%	YICENQDSISSK [Trypsin-generated albumin fragment, SEQ ID NO 214]
1%	DDNPNLPR [Trypsin-generated albumin fragment, SEQ ID NO 216]
18%	QEPERNECFLQHK (not fully specified) [Trypsin-generated albumin fragment, SEQ ID NO 211]
2%	LDELRDEGK [Trypsin-generated albumin fragment, SEQ ID NO 215]
23%	AVMDDFAAFVEK [Trypsin-generated albumin fragment, SEQ ID NO 208]
35%	LCTVATLR [Trypsin-generated albumin fragment, SEQ ID NO 202]
29%	AAFTECCQAADK [Trypsin-generated albumin fragment, SEQ ID NO 205]
13%	VHTECCHGDLLECADDR [Trypsin-generated albumin fragment, SEQ ID NO 212]
42%	RPCFSALEVDETYVPK [Trypsin-generated albumin fragment, SEQ ID NO 198]
26%	CCTESLVNR [Trypsin-generated albumin fragment, SEQ ID NO 206]
36%	SLHTLFGDK [Trypsin-generated albumin fragment, SEQ ID NO 200]

Target: T1, His-tagged P3028
Test: PEPSCAN ELISA, peptide on chip;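 also: binding detected by peroxidase ELISA with ABTS, OD405 colour imaged by CCD camera before and after staining, raw OD405 reported as rampo units, air-bubble wells scored 0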
Procedure: After washing, the peroxidase substrate 2,2′-azine-di-3-ethylbenzthiazoline sulfonate (ABTS) and 2 μL of 3% H2O2 were added. The binding capacity of the mAb was measured as a color development at 405 nm (optical density, OD405). The color development was quantified with a charge-coupled device (CCD)—camera and an image processing system.
The OD405-values obtained by a CCD-camera was considered as raw data values (“rampo values,” “rampo units,” or “rampo scores”). […] First the CCD-camera made a picture of the card before peroxidase coloring and then again a picture after the peroxidase coloring. […] These values were copied into an excel file and labeled as a raw data file. […] Sometimes a well can contain an air-bubble resulting in a false-positive value. If manual inspection of the cards detect an air-bubble the value are set to 0 for well.

RAMPO Score	Binder
260 rampo units	KKLDTFFVKLSLFTER [SEQ ID NO 391]
1140 rampo units	KKLDTFFVKLSLQTER [SEQ ID NO 370]
343 rampo units	KKLDTFFVKLSLFGER [SEQ ID NO 377]
369 rampo units	KKLDTFFVKLSLFSER [SEQ ID NO 384]
501 rampo units	KKLDTFFVKLSLFMER [SEQ ID NO 381]
404 rampo units	KKLDTFFVKLSLFTDR [SEQ ID NO 387]
292 rampo units	KKLDTFFVKLSLFTET [SEQ ID NO 392]
374 rampo units	KKLDTFFVKLSLFWER [SEQ ID NO 386]
502 rampo units	KKLDTFFVKLSLRTER [SEQ ID NO 371]
311 rampo units	KKLDTFFVKLSLFTEN [SEQ ID NO 390]
635 rampo units	KKLDTFFVKLSLSTER [SEQ ID NO 372]
360 rampo units	KKLDTFFVKLSLFLER [SEQ ID NO 380]
297 rampo units	KKLDTFFVKLSLFTEF [SEQ ID NO 388]
494 rampo units	KKLDTFFVKLSLTTER [SEQ ID NO 373]
348 rampo units	KKLDTFFVKLSLFFER [SEQ ID NO 376]
311 rampo units	KKLDTFFVKLSLFTEY [SEQ ID NO 393]
375 rampo units	KKLDTFFVKLSLFIER [SEQ ID NO 379]
430 rampo units	KKLDTFFVKLSLWTER [SEQ ID NO 375]
551 rampo units	KKLDTFFVKLSLFPER [SEQ ID NO 383]
380 rampo units	KKLDTFFVKLSLFVER [SEQ ID NO 385]
291 rampo units	KKLDTFFVKLSLFTEK [SEQ ID NO 389]
599 rampo units	KKLDTFFVKLSLFNER [SEQ ID NO 382]
446 rampo units	KKLDTFFVKLSLVTER [SEQ ID NO 374]
463 rampo units	KKLDTFFVKLSLFHER [SEQ ID NO 378]
